The results in this text go back to patent EP3911180B1, “PAENIBACILLUS WYNNII BETA-GALACTOSIDASE FOR THE PRODUCTION OF LACTOSE-DEPLETED AND GOS-ENRICHTED DAIRY PRODUCTS” (Universität Hohenheim, priority 2019, dated 2020).

Substrate in the data set: OC[C@H]1O[C@@H](O[C@H]2[C@H](O)[C@@H](O)C(O)O[C@@H]2CO)[C@H](O)[C@@H](O)[C@H]1O
The data set can be described thus: Determination of KM with lactose as substrate. Format: biochemical, Paenibacillus wynnii. The conditions noted are these: 8 °C. The protocol: For the substrate solution 400 mM lactose was dissolved in Novo buffer (the composition of which is depicted in Table 4). The beta-galactosidase activity was determined in a thermo shaker in 1.5 mL reaction tubes at 8°C. The enzyme mix and the lactose solution were preincubated at 8 °C for 12 min. To start the enzymatic reaction 100 µL of the enzyme mix were added to 100 µL lactose solution. The reaction was carried out for 5 min at 8 °C. The reaction was stopped by adding 300 µL 1 M HClO4 to the enzyme-substrate-mix. The mix was kept on ice for 5 min before it was centrifuged at 13 000 rcf and 4 °C for 5 min. 160 µL of the supernatant were transferred to 75 µL 2 M KOH to neutralise the solution. The neutralisation step was checked using pH paper and the pH was adjusted if necessary. The solution was kept on ice for another 5 min before it was centrifuged at 13 000 rcf at 4 °C for 5 min. All assays were performed in triplicate. Table 4: Composition of Novo buffer
The kinetic parameters were determined using the natural substrate lactose. The reaction matrices and conditions were chosen in order to simulate conditions in milk systems. The chosen reaction matrices were Novo buffer (cf. Table 4, above) and milk diluted with Novo buffer. The reaction temperature was 8 °C and the pH value was 6.7.
For the determination of the KM values of P. wynnii beta-galactosidase lactose concentrations ranged from 0.76 mM to 97.5 mM. In order to obtain different lactose concentrations in milk, milk was diluted with Novo buffer. […] The enzyme activities were measured under initial reaction velocity conditions of the enzyme. The reaction times for the initial velocity of the enzymes were determined in previous experiments. The kinetic parameter KM was analysed using the Enzyme Kinetics Module in SigmaPlot 12.5 (Systat Software, Inc., San Jose, USA).
In the case of the studies in Novo buffer the enzyme activity decreased again with increasing lactose concentration. […] Table 6: Summary of the determined KM values using the Enzyme Kinetics Module in SigmaPlot 12.5. […]

B1: P. wynnii beta-galactosidase (SEQ ID NO: 1) (Paenibacillus wynnii) (protein)
chain: MRKKLVYSPPTNGYPEWNNNPECFQINRMDAHATWIPFNTTEDALLGDPQSSPNYLSLNGMWKFAYAETPDQRIRNFFEKNYDCSSWAELNVPSHWQMHGYDYPQYTNVRYPWSEREPELKPPFAPTQYNPVGSYVRTFSVPEDWSGKPVFISFQGVESAFYVWLNGELVGYSEDTFTPAEFDLTPYLIPGDNKLAVEVYRWCDASWLEDQDFWRLSGIFRDVYLYTTPEAHIYDFFVRTELDEQYRHAELQLDVKLMDYFERTAEAVIVHAQLYDHDQNAIFDQPLSQTVYFNSASTQTLQFSSSIIDPLKWSAEHPNLYTLVLSLHHVDGELMEAVSCRVGFRTFELKDGLMKINGKRIVFKGVNRHEFSCDTGRSIDVDDMVRDILLMKAHNINAVRTSHYPNQTIWYDLCDQYGLYVIDETNLETHGSWSYGQTDLGGNTVPGSRPEWRANVLDRCNSMLQRDKNHPSIVIWSLGNESFGGDNFVAMHDFLKKEDPSRLVHYEGLFHYRESDVASDIESTMYISPADVEQYALNDPKKPYILCEYSHAMGNSCGGLHLYWEVFEKYDILQGAFIWDWIDQAIRLKQADGSMHMAYGGDFGESPHDGNFCGNGLIFADRSVSPKLYEVKKCYQNVKFEAVDLERGIYRVTNQNLFTDLAEYALAWEVSCNGNPVLKGTVDLAVPAGESAEISVPVVDEPNLQSEGEHVLTFSLQLKKSTLWADAGHEVAWEQFLLPTPQFMAGQDQDSVLTSDRGVIVEEQAGRLTVQAADVSLQFSTSSGYLISMQNKGKELLLEPVRPNFWRAVTDNDLGNKHHERCAVWNTAGAGCTLASFESHKNVDGVTVRAKYTVPTVPISSLILEYRIQENGSIEVFEELSPGMGLPEIPEIGLMFIVEDRLDTVSWYGRGPHENYWDRKTGARLGYFSGSVQDQFVPYIRPQECGNKTDVRFASITGGINGSGFRVDGDPVLELNALPWTPAELEANDHIYKLPASNKTVVRVNYKQMGVGGDNSWGATTHPEFTLPADQTYGFRFTIRMV
One may read the Km as the substrate concentration at which the rate is half of its maximum. Consider B1, for which the Michaelis constant (Km) runs as follows: (other: Novo buffer, pH 6.7, A: evaluation according to Michaelis-Menten, pH 6.7) 0.34 ± 0.084 mM; (other: Novo buffer, pH 6.7, B: evaluation under consideration of substrate inhibition, pH 6.7) 0.52 ± 0.089 mM; (other: milk + Novo buffer) 0.63 mM.
